Values quoted from earlier work, collected in PMC4464172.

Biological target: CAII (Homo sapiens) (UniProt P00918)
Assay: isothermal titration calorimetry

Kd: 160 nM
Substance: NBCe1-A (from UniProt Q9Y6R1)
